How the values were obtained:
Details in all cases: remark: other sources report otherwise
[1] = target: T1, biotinylated full-length human IGF-I receptor, captured on streptavidin (human), P08069; test: similar ELISA binding titration on human IGF-I receptor
[2] = target: human IGF-I receptor on human tumor cells (human), P08069; test: IGF-I displacement assay on MCF-7 cells at 4° C., 10-100 µg/mL antibody, capture ELISA of the lysate
[3] = target: human IGF-I receptor on human tumor cells (human), P08069; test: IGF-I displacement assay on MCF-7 cells at 37° C., 10-100 µg/mL antibody, capture ELISA of the lysate
[4] = target: T1, biotinylated full-length human IGF-I …; test: ELISA titration on biotinylated human IGF-I receptor captured on streptavidin; non-linear regression for one-site binding

Kd [1]	percent displacement of pre-bound biotinylated IGF-I [2]	percent displacement of pre-bound biotinylated IGF-I [3]	Kd [4]	Binder
0.3 nM				Fab fragment of EM164 antibody (Fab, V domains shown, here or on the partner: biotinylated with PEO-maleimide-biotin reagent (sites not given)) VH: QVQLQQSGAELVKPGASVKLSCKASGYTFTSYWMHWVKQRPGQGLEWIGEINPSNGRTNYNEKFKRKATLTVDKSSSTAYMQLSSLTSEDSAVYYFARGRPDYYGSSKWYFDVWGAGTTVTVS VL: DVLMTQTPLSLPVSLGDQASISCRSSQSIVHSNVNTYLEWYLQKPGQSPKLLIYKVSNRFSGVPDRFSGSGSGTDFTLRISRVEAEDLGIYYCFQGSHVPPTFGGGTKLEIKR
	50%	90%	0.1 nM	murine anti-IGF-I receptor antibody EM164 (antibody, V domains shown, here or on the partner: biotinylated with PEO-maleimide-biotin reagent (sites not given)) VH: QVQLQQSGAELVKPGASVKLSCKASGYTFTSYWMHWVKQRPGQGLEWIGEINPSNGRTNYNEKFKRKATLTVDKSSSTAYMQLSSLTSEDSAVYYFARGRPDYYGSSKWYFDVWGAGTTVTVS VL: DVLMTQTPLSLPVSLGDQASISCRSSQSIVHSNVNTYLEWYLQKPGQSPKLLIYKVSNRFSGVPDRFSGSGSGTDFTLRISRVEAEDLGIYYCFQGSHVPPTFGGGTKLEIKR
